Patent US20070010016A1

Molecular target: Adenovirus 5 receptor (on HeLa cells)
Test: cell-based or functional assay

Adenovirus 5 fiber protein (from UniProt P11818 1-581)
transduction of HeLa cells with Av1LacZ4 in the presence of competitor (beta-galactosidase positive cells, percent of control): 0.1 to 1 mug/ml
